In general, Kd refers to a measure of binding affinity in units of concentration. Low values mean tighter binding, high ones weaker binding. What is called koff is a measure of how fast the partners let go of each other. The term kon denotes the rate constant with which the complex forms. A lower kon goes with slower complex formation. One may read the EC50 (read off the curve) as the concentration that produces a half-maximal response. What is called EC50 is the concentration at which the effect is half-maximal. A high value points to a less potent agent.

Here are results for 7 molecules from patent US12600782 (BIOTHEUS, dated 2026).

Read-outs that look alike come from different tables or passages of the source.

For test [1], the target named is T1, human PD-L2 protein (purchased from AcroBiosystems) (human, UniProt Q9BQ51 20-219, limits assumed, biotinylated in the blocking assays).
T1 construct: Bought soluble protein; also called PD-L2 antigen; biotinylated human PD-L2 protein
T1 sequence (looked up): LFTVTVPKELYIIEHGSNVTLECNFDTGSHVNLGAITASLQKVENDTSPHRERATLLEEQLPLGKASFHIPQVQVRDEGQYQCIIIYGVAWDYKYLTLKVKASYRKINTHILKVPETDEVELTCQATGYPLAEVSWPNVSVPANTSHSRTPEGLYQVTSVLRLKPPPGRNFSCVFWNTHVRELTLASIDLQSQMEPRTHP
Nature of the test: BLI (ForteBio), antibody on AHQ sensor, 100 nM PD-L2 antigen, 1:1 model. The protocol: (§1) ForteBio affinity determination was carried out according to existing methods (Estep, P et al., High throughput solution-based measurement of antibody-antigen affinity and epitope binning. MAbs, 2013.5(2): p. 270-8). In short, the sensor was equilibrated for 30 min under the line of the analysis buffer, and then the baseline was established after online detection for 60 s. The purified antibody obtained as described above was loaded onto the AhQ sensor online. […] Kinetic analysis was performed using a 1:1 binding model.
(§2) The experimental method was the same as that in Example 1.5.

In test [2] the target is T2, human PD-L2 on CHO cells (CHO-hPD-L2 cells) (human, UniProt Q9BQ51 20-273).
T2 construct: whole, on cells; also called CHO-K1-PD-L1/PD-L2
T2 sequence (looked up): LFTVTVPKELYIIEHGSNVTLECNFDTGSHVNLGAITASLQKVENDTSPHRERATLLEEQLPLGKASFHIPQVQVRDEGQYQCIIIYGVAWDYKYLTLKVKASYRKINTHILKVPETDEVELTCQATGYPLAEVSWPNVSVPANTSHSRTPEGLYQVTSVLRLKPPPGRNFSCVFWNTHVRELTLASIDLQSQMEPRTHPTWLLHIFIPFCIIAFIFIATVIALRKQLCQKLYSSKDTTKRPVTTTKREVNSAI
Nature of the test: flow cytometry on CHO-hPD-L2 cells, PE anti-human IgG-Fc, median fluorescence intensity (MFI). As for the experimental part:
(§3) The expanded CHO-hPD-L2 cells were adjusted to a cell density of 2×10⁶ cells/ml, and were added to 96-well flow plate at 100 μl/well, and centrifuged for later use. […] The diluted samples were added to the 96-well flow plate with cells at 100 μl/well, incubated at 4° C. for 30 min, and washed twice with PBS. Goat F(ab')2 anti-human IgG-Fc (PE) (purchased from Abcam) diluted 100 times with PBS was added at 100 μl/well, incubated at 4° C. for 30 min, and washed twice with PBS. PBS was added at 100 μl/well to resuspend cells, and detection was performed on a CytoFlex (Bechman) flow cytometer and the corresponding MFI was calculated.
For orientation: Flow cytometry measures light scatter and fluorescence of single cells or particles in a stream.

Test [3] has as its target T1, human PD-L2 protein (purchased from …). Nature of the test: flow cytometry blocking assay: antibody pre-incubated with biotinylated human PD-L2 protein (1 ug/ml), binding of PD-L2 to CHO-hPD-1 cells read as MFI (APC). The protocol: (§4) CHO cells overexpressing human PD-1 (CHO-hPD-1 cells) were generated by transfection of the pCHO1.0 vector (purchased from Invitrogen™) cloning human PD-1 cDNA (purchased from Sino Biological). The expanded CHO-hPD-1 cells were adjusted to a cell density of 2×10⁶ cells/ml, and were added to 96-well flow plate at 100 μl/well, and centrifuged for later use. The purified mutant sample was diluted with PBS and diluted 3 times from […] for 12 points. […] The co-incubation sample was added to the above-mentioned 96-well flow plate with cells 100 μl/well, incubated at 4° C. for 30 min, and washed twice with PBS. APC goat anti-mouse IgG (minimum×reactive) antibody diluted 100 times with PBS (purchased from Biolegend®) was added at 100 μl/well, incubated at 4° C. for 30 min, and washed twice with PBS. PBS was added at 100 μl/well to resuspend cells, and detection was performed on a CytoFlex (Bechman) flow cytometer and the corresponding MFI was calculated.

In test [4] the target is T3, human PD-L1 protein (purchased from AcroBiosystems) (human, UniProt Q9NZQ7 19-238, biotinylated in the blocking assay).
T3 construct: Bought soluble protein; also called PD-L1 antigen; biotinylated human PD-L1 protein
T3 sequence (Q9NZQ7 19-238 limits assumed): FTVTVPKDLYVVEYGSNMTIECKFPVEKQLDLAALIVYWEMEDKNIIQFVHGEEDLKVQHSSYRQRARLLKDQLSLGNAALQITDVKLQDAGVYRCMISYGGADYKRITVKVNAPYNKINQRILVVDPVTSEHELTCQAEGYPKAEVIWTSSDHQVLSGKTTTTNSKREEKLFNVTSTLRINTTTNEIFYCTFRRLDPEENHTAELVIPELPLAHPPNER
Kind of test: BLI (ForteBio), antibody on AHQ sensor, 100 nM PD-L1 antigen, 1:1 model. The protocol:
as §1
For orientation: BLI is a label-free optical method that tracks binding on a fibre tip over time.

In test [5] the target is T1, human PD-L2 protein (purchased from …). Nature of the test: BLI (ForteBio), antibody on AHQ sensor, 100 nM PD-L2 antigen, 1:1 model. As for the experimental part: as §1
The source holds these as a separate data set.

For test [6], the target named is T4, human PD-L1 on CHO cells (CHO-hPD-L1 cells) (human, UniProt Q9NZQ7 19-290).
T4 construct: whole, on cells; also called CHO-K1-PD-L1/PD-L2
T4 sequence (Q9NZQ7 19-290): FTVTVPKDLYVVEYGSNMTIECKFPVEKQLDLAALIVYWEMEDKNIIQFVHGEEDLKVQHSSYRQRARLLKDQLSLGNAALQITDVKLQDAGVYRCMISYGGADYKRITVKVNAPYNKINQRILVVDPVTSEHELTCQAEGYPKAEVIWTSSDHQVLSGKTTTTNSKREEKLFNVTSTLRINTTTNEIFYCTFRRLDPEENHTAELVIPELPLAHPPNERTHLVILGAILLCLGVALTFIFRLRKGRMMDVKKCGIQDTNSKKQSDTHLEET
Kind of test: flow cytometry on CHO-hPD-L1 cells, PE anti-human IgG-Fc, MFI; table under the plot, unit from the concentration axis.

Test [7] concerns the target T2, human PD-L2 on CHO cells (CHO-hPD-L2 …). Kind of test: flow cytometry on CHO-hPD-L2 cells, PE anti-human IgG-Fc, MFI; table under the plot, unit from the concentration axis.
For test [8], the target named is T3, human PD-L1 protein (purchased from …). Nature of the test: flow cytometry blocking assay: antibody pre-incubated with biotinylated human PD-L1 protein (1 ug/ml), binding of PD-L1 to CHO-hPD-1 cells read as MFI; falling curve, the table under the plot calls the half-maximal concentration EC50; unit from the concentration axis. The protocol:
(§5) The expanded CHO-hPD-1 cells were adjusted to a cell density of 2 ×10^6 cells/ml, and were added to 96-well flow plate at 100 μl/well, and centrifuged for later use. The purified mutant sample was diluted with PBS and diluted 3 times from […] for 12 points.
(§6) 28 purified sample at 4° C. for 30 min. The co-incubation sample was added to the above-mentioned 96-well flow plate with cells at 100 μl/well, incubated at 4° C. for 30 min, and washed twice with PBS. APC goat anti-mouse IgG (minimum×reactivity) antibody diluted 100 times with PBS (purchased from Biolegend®) was added at 100 μl/well, incubated at 4° C. for 30 min, and washed twice with PBS. PBS was added at 100 μl/well to resuspend cells, and detection was performed on a CytoFlex (Bechman) flow cytometer and the corresponding MFI was calculated.

In test [9] the target is T1, human PD-L2 protein (purchased from …). Kind of test: flow cytometry blocking assay: antibody pre-incubated with biotinylated human PD-L2 protein (1 ug/ml), binding of PD-L2 to CHO-hPD-1 cells read as MFI (APC); falling curve, the table under the plot calls the half-maximal concentration EC50; unit from the concentration axis. The protocol: as §5, §6
The target in test [10] is T2, human PD-L2 on CHO cells (CHO-hPD-L2 …). Nature of the test: flow cytometry on CHO-hPD-L2 cells, PE anti-human IgG-Fc, median fluorescence intensity (MFI). As for the experimental part: as §3
The source holds these as a separate data set.

Test [11] has as its target T1, human PD-L2 protein (purchased from …). Kind of test: flow cytometry blocking assay: antibody pre-incubated with biotinylated human PD-L2 protein (1 ug/ml), binding of PD-L2 to CHO-hPD-1 cells read as MFI. As for the experimental part:
as §4

Test [12] has as its target T4, human PD-L1 on CHO cells (CHO-hPD-L1 …). Nature of the test: flow cytometry on CHO-hPD-L1 cells, PE anti-human IgG-Fc, median fluorescence intensity (MFI).
Test [13] addresses T3, human PD-L1 protein (purchased from …). Nature of the test: BLI (ForteBio), antibody on AHQ sensor, 100 nM PD-L1 antigen, 1:1 model. The protocol:
as §1, §2
This is another data set of the same source.

B1: HZ-D-Na-96-3 (antibody, V domains shown)
VH: EVQLVESGGGLVQPGGSLRLSCAASGRTFSSMTIGWFRQAPGKEREFVSGIGWTSGLTVYADSVKGRFTISRDNAKNSMYLQMNSLKPEDTAVYYCAADSMNRGQFDYWGQGTLVTVSS
notes: Humanized anti-PD-L2 heavy chain antibody: VHH linked to human IgG1 (LALA) Fc; the junction is not described
In test [1], B1 had a Kd of 1.99 nM, a koff of 0.00059 s⁻¹ and an association rate constant (kon) of 297000 M⁻¹ s⁻¹. Moreover, the half-maximal effective concentration (EC50 (read off the curve)) in [2] was approximately 3 nM. Besides, the “IC50 (read off the curve)” value in test [3] is approximately 2 nM.

B2: Bi-203-204 (bispecific antibody, human IgG1, kappa, L234A L235A, V domains shown)
V domain 1: QVQLVESGGGLVKPGGSLRLSCAASGHTFIIYAIGWFRQAPGKGLEFVATINWSGSMTNYADSVKGRFTISRDNAKNTVYLQMNSLKPDDTAVYYCAAYVGATISTAHSRYDYWGQGTLVTVSS
V domain 2: EVQLVESGGGLVQPGGSLRLSCAASGRTFSSMTIGWFRQAPGKGLEFVSGIGWTSGLTVYADSVKGRFTISRDNAKNSMYLQMNSLRAEDTAVYYCAADSMNRGQFDYWGQGTLVTVSS
notes: Formula III + IV format
Regarding B2, the Kd in [4] came out at 1.59 nM; in test [5] it was 1.14 nM. In addition, the off-rate (koff) in [4] was 0.000405 s⁻¹; in test [5] it was 0.000424 s⁻¹. Besides, the kon in [4] came to 254000 M⁻¹ s⁻¹; in [5], 372000 M⁻¹ s⁻¹. Also, the EC50 in [6] came to 3.74 nM; in test [7], 1.25 nM; in [8] it was 12.3 nM; in test [9] it was 8.35 nM.

B3: D-Na-96 (antibody, V domains shown)
VH: QVQLVESGGGLVQAGASLRLSCAASGRTFSSMTIGWFRQTPGKEREFVAGIGWTSGLTVYADSVKGRFTISRDNAEKTMYLHMNNLKPEDTSVYYCAADSMNRGQFDYWGQGTQVTVSS
notes: Anti-PD-L2 heavy chain antibody: VHH linked to human IgG1 (LALA) Fc; the junction is not described
In the case of B3, the results for the Kd in [1] and in [5] were 2.5 nM and 1.27 nM, respectively. In addition, the koff is 0.000655 s⁻¹ in test [1] and 0.0011 s⁻¹ in test [5]. Also, the kon came out at 262000 M⁻¹ s⁻¹ in test [1] and 862000 M⁻¹ s⁻¹ in test [5]. Besides, the 50% effective concentration (EC50 (read off the curve)) in [10] was approximately 50 nM; in test [2], approximately 6 nM. Besides, the “IC50 (read off the curve)” value in test [11] is approximately 9 nM; in [3], approximately 2 nM.

B4: HZ-D-Na-96-2 (antibody, V domains shown)
VH: EVQLVESGGGLVQPGGSLRLSCAASGRTFSSMTIGWFRQAPGKGLEFVSGIGWTSGLTVYADSVKGRFTISRDNAKNSLYLQMNSLKPEDTAVYYCAADSMNRGQFDYWGQGTLVTVSS
notes: as for B1
With B4, in test [1], the dissociation constant (Kd) is 1.58 nM, the koff was 0.000512 s⁻¹ and the kon amounted to 323000 M⁻¹ s⁻¹. Besides, the “IC50 (read off the curve)” value in test [3] is approximately 2 nM.

B5: HZ-D-Na-96-1 (antibody, V domains shown)
VH: EVQLVESGGGLVQPGGSLRLSCAASGRTFSSMTIGWFRQAPGKGLEFVSGIGWTSGLTVYADSVKGRFTISRDNAKNSMYLQMNSLRAEDTAVYYCAADSMNRGQFDYWGQGTLVTVSS
notes: as for B1
In the case of B5, the Kd in [1] came to 1.68 nM; in [5], 1.11 nM. Besides, the koff in test [1] was 0.000577 s⁻¹; in test [5] it was 0.0004 s⁻¹. The figures for the kon in test [1] and in [5] were 344000 M⁻¹ s⁻¹ and 360000 M⁻¹ s⁻¹, respectively. Besides, the concentration for a half-maximal effect (EC50 (read off the curve)) in test [2] is approximately 4 nM. Moreover, the EC50 turned out to be 1.75 nM in test [7] and 13.4 nM in [9]. Besides, the “IC50 (read off the curve)” value in test [3] is approximately 2 nM.

B6: K-Yr-13&14-02 (antibody, V domains shown)
VH: QVQLVESGGGLVKAGDSLRLSCAASGHTFIIYAIGWFRQAPGKEREFVATINWSGSMTNYTDSVKGRFTISRDNAKNTVYLQMNSLKPDDTAIYYCAAYVGATISTAHSRYDYWGQGTQVTVSS
notes: Anti-PD-L1 heavy chain antibody: VHH linked to human IgG1 (LALA) Fc; the junction is not described
In [4], B6 displayed a Kd of 0.96 nM, a koff of 0.000561 s⁻¹ and a kon of 585000 M⁻¹ s⁻¹. Besides, in test [12], the “EC50 (read off the curve)” value is approximately 8 nM.

B7: HZ-K-Yr-13&14-02-3 (antibody, V domains shown)
VH: QVQLVESGGGLVKPGGSLRLSCAASGHTFIIYAIGWFRQAPGKGLEFVATINWSGSMTNYADSVKGRFTISRDNAKNTVYLQMNSLKPDDTAVYYCAAYVGATISTAHSRYDYWGQGTLVTVSS
notes: Humanized anti-PD-L1 heavy chain antibody: VHH linked to human IgG1 (LALA) Fc; the junction is not described; also called HZ-K-13&14-02-3
In [13], B7 registered a Kd of 0.223 nM, a koff of 9.92e-05 s⁻¹ and a kon of 445000 M⁻¹ s⁻¹. In test [4], this molecule displayed a Kd of 1.38 nM, a koff of 0.000309 s⁻¹ and a kon of 224000 M⁻¹ s⁻¹. Further, the “EC50 (read off the curve)” value in test [12] is approximately 10 nM. In addition, the 50% effective concentration (EC50) in test [6] was 2.55 nM. In addition, the EC50 in [8] was determined as 5.17 nM.
